Among the data in paper PMC7055321 are ACE inhibition (FAPGG hydrolysis, absorbance values, retold here.

Values joined by “and” are separate entries in the source; they are usually repeats but may differ in a detail not shown here. Identical values can stand only once.

In this assay the target is ACE (angiotensin-I converting enzyme) from rabbit lung (rabbit) (UniProt P12822).
Sequence of UniProt P12822 (P12822 34-1310): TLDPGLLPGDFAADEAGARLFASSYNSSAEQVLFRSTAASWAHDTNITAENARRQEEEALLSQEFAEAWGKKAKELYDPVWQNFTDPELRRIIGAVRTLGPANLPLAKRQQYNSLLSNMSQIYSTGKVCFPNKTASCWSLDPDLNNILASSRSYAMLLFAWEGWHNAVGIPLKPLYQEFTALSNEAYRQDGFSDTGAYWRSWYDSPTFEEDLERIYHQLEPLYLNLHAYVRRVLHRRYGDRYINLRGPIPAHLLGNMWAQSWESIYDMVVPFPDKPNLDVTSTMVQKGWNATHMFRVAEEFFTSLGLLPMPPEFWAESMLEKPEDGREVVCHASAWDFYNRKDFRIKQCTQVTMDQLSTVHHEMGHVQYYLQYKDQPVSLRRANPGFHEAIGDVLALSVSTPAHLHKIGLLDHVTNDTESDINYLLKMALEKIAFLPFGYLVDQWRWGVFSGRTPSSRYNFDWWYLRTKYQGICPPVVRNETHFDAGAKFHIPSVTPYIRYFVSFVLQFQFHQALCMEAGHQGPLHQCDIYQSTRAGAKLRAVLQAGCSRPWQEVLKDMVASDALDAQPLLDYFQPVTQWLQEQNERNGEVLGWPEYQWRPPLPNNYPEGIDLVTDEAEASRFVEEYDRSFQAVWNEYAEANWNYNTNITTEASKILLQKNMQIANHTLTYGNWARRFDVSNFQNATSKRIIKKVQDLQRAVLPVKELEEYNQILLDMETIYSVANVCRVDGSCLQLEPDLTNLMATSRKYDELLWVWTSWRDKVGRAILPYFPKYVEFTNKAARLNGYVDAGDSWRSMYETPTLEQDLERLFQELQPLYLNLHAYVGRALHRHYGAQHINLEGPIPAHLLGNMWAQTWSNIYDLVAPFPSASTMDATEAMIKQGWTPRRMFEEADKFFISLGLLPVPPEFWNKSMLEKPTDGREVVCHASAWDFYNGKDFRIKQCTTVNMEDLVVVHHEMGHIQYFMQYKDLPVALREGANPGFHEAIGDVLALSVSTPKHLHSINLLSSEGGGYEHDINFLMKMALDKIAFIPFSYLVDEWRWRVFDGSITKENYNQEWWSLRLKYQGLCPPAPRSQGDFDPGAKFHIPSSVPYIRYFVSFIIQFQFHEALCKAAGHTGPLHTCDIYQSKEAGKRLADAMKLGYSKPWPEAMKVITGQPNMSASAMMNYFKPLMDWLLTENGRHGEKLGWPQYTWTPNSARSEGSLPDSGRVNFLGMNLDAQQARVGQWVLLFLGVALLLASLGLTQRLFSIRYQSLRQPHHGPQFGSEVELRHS

In the case of IER tripeptide, the ACE inhibition (FAPGG hydrolysis, absorbance at 340 nm), IC50 is 0.06 mg/ml and 0.144 mM.
